The values that follow come from patent US20090148513A1 (AbbVie / Abbott, published 2009).

This assay has as its target rHuTNF (human, UniProt P01375 77-233). The experiment in a line: cell-based or functional assay.

rHuTNF, sequence (P01375 77-233 limits assumed): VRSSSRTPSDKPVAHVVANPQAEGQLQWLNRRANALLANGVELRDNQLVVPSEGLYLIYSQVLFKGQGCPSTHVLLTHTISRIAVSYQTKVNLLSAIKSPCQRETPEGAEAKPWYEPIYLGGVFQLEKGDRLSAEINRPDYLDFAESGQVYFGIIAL

B1: MAK195F, F(ab')2 fragment of the murine IgG3 monoclonal anti-hTNFalpha antibody MAK195 (other)
light: DIVMTQSHKFMSTTVGDRVSITCKASQAVSSAVAWYQQKPGQSPKLLIYWASTRHTGVPDRFTGSGSVTDFTLTIHNLQAEDLALYYCQQHYSTPFTFGSGTKLEIKRADAAPTVSIFPPSSEQLTSGGASVVCFLNNFYPKDINVKWKIDGSERQNGVLNSWTDQDSKDSTYSMSSTLTLTKDEYERHNSYTCEATHKTSTSPIVKSFNRNEC
heavy: QVQLKESGPGLVAPSQSLSITCTVSGFSLTDYGVNWVRQPPGKGLEWLGMIWGDGSTDYDSTLKSRLSISKDNSKSQIFLKMNSLQTDDTARYYCAREWHHGPVAYWGQGTLVTVSAATTTAPSVYPLVPGCSDTSGSSVTLGCLVKGYFPEPVTVKWNYGALSSGVRTVSSVLQSGFYSLSSLVTVPSSTWPSQTVICNVAHPASKTELIKRIEPRIPKPSTPPGSSCPPGNILGGPSVF
modifications: N-terminal glutamine completely converted into pyroglutamic acid; partial O-glycosylation at SerH222 (about 70% of Fd' fragments non-glycosylated); deamidation of a single asparagine residue (AsnL157)
For B1, the “relative biological activity (neutralisation of rHuTNF cytotoxicity on mouse L-929 cells; mean IC50 of reference standard / IC50 of sample x 100%)” value came out at 102%.
